Assay results: publication PMC3722096, “Crystal Structure of the N-Acetyltransferase Domain of Human N-Acetyl-L-Glutamate Synthase in Complex with N-Acetyl-L-Glutamate Provides Insights into Its Catalytic and Regulatory Mechanisms” (PLoS ONE, 2013)

B1: human NAGS N-acetyltransferase domain (residues 377-534), as used in gel filtration (domain or fragment, UniProt Q8N159 377-534, looked up)
chain: MLRVRSLDKLDQGRLVDLVNASFGKKLRDDYLASLRPRLHSIYVSEGYNAAAILTMEPVLGGTPYLDKFVVSSSRQGQGSGQMLWECLRRDLQTLFWRSRVTNPINPWYFKHSDGSFSNKQWIFFWFGLADIRDSYELVNHAKGLPDSFHKPASDPGS
notes: N-acetyltransferase (NAT) domain of human N-acetylglutamate synthase, residues 377-534; also called hNAT; hNAT domain
B2: complete mouse N-acetylglutamate synthase (enzyme, UniProt Q8R4H7 19-527, looked up)
chain: LRSPGGPGGSRRLSGSARRRGAKSASPGRRLSTARAHAEDAEGAKGRVQSPAVEEPSWTPLPTPLESPAPPAGRSLVQRDIQAFLNQCGASPGEARHWLTQFQTCYHSVDKPFAVMEVDEEVIRCPQAVSRLAFALAFLQRMDMKPLVVLGLPTPTAPSGCLSFWEAKAQLAQSCKVLVDELRHNAATAVPFFGGGSVLSAAEPAPHASYGGIVAVETDLLQWCLESNSIPILCPIGETAARRSVLLDSLEVTASLAKALQPTKIIFLNNSGGLRNNSQKILSNVNLPADLDLVTNAEWLSIKERQQIRLIVDVLSRLPHYSSAVITAASTLLTELFSNKGCGTLFKNAERMLRVRNLDSLDQGRLVNLVNASFGKKLREDYLESLRPRLHSIYVSEGYNAAAILTVEPVLGGTPYLDKFVVSSSRQGQGSGQMLWECLRRDLQTLFWRSRVTNPINPWYFKHSDGSFSNKQWIFFWFGLADIRDSYELVNHAKGLPDSFCKPASDPGS
notes: N-acetylglutamate synthase (NAGS, EC 2.3.1.1), mouse; the printed tetramer weight of 195.8 kDa gives 48.95 kDa a subunit; also called mNAGS; mouse NAGS
B3: complete human N-acetylglutamate synthase (enzyme, UniProt Q8N159 19-534, looked up)
chain: LRGRGGTGGARRLSCGARRRAARGTSPGRRLSTAWSQPQPPPEEYAGADDVSQSPVAEEPSWVPSPRPPVPHESPEPPSGRSLVQRDIQAFLNQCGASPGEARHWLTQFQTCHHSADKPFAVIEVDEEVLKCQQGVSSLAFALAFLQRMDMKPLVVLGLPAPTAPSGCLSFWEAKAQLAKSCKVLVDALRHNAAAAVPFFGGGSVLRAAEPAPHASYGGIVSVETDLLQWCLESGSIPILCPIGETAARRSVLLDSLEVTASLAKALRPTKIIFLNNTGGLRDSSHKVLSNVNLPADLDLVCNAEWVSTKERQQMRLIVDVLSRLPHHSSAVITAASTLLTELFSNKGSGTLFKNAERMLRVRSLDKLDQGRLVDLVNASFGKKLRDDYLASLRPRLHSIYVSEGYNAAAILTMEPVLGGTPYLDKFVVSSSRQGQGSGQMLWECLRRDLQTLFWRSRVTNPINPWYFKHSDGSFSNKQWIFFWFGLADIRDSYELVNHAKGLPDSFHKPASDPGS
notes: N-acetylglutamate synthase (NAGS, EC 2.3.1.1), human; the printed tetramer weight of 202.4 kDa gives 50.6 kDa a subunit; also called hNAGS; human NAGS

How the values were obtained:
[1] = target: NAT domain of mouse NAGS (mouse); assay: SEC; analytic gel filtration, Superdex 200 HR 10/30; 100 mM NaH2PO4 pH 7.4, 150 mM NaCl, 10% glycerol, 1 mM β-mercaptoethanol; weights from a standard curve
[2] = target: the molecule itself; assay: as above
[3] = target: the molecule itself; assay: cross-linking; dimethyl suberimidate (4.5 µg) or suberic acid bis(3-sulfo-N-hydroxysuccinimide ester) sodium salt (9.0 µg), 10 µl of 200 mM triethanolamine pH 8.25, three hours at 298 K; SDS-PAGE, Coomassie (mNAGS) or silver (hNAGS) stain

Molecule | stoichiometry N [3] | also measured
NAT domain of mouse NAGS (domain or fragment) | – | stoichiometry N [1]: 2
B1 | – | stoichiometry N [2]: 2
B2 | 4 | –
B3 | 4 | –
